# T1: APBA3_1, O96018
# T1 sequence (O96018 389-490, limits assumed, looked up): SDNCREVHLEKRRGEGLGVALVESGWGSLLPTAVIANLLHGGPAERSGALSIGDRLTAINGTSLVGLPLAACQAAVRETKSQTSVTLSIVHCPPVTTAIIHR
# T2: DVL3, Q92997
# T2 sequence (Q92997 244-331, limits assumed, looked up): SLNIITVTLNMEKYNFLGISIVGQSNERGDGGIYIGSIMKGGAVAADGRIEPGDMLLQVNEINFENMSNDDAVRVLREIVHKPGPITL
# T3: GRIP1_3, Q9Y3R0
# T3 sequence (Q9Y3R0 247-346, limits assumed, looked up): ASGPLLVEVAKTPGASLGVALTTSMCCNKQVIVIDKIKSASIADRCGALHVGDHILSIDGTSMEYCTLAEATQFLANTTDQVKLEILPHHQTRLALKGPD
# T4: LNX2_2, Q8N448
# T4 sequence (Q8N448 334-432, limits assumed, looked up): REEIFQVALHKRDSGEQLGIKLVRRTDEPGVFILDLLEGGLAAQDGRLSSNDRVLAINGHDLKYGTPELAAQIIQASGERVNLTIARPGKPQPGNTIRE
# T5: MPDZ_10, O75970
# T5 sequence (O75970 1624-1722, limits assumed, looked up): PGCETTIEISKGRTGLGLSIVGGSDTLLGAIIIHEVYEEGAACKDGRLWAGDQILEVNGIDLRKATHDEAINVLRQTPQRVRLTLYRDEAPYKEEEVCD
# T6: MPDZ_5, O75970
# T6 sequence (O75970 695-796, limits assumed, looked up): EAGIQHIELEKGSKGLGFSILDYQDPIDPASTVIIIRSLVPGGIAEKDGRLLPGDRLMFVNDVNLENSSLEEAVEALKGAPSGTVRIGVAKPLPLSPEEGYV
# T7: PARD3B_1, Q8TEW8
# T7 sequence (Q8TEW8 196-299, limits assumed, looked up): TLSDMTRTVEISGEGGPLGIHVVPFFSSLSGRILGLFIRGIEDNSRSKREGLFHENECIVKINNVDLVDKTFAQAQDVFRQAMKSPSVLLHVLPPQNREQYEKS
# T8: PCLO, Q9Y6V0
# T8 sequence (Q9Y6V0 4491-4600, limits assumed, looked up): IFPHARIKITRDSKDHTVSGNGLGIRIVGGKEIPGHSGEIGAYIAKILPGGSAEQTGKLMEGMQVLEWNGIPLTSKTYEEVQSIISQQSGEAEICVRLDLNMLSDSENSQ
# T9: PDZD7_3, Q9H5P4
# T9 sequence (Q9H5P4 857-944, limits assumed, looked up): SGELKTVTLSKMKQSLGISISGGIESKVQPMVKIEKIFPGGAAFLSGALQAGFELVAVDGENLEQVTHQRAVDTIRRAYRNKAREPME
# T10: RADIL, Q96JH8
# T10 sequence (Q96JH8 971-1071, limits assumed, looked up): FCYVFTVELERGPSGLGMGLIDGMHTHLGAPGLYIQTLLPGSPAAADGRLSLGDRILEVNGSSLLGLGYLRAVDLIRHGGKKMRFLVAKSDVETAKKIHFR
# T11: SHANK1, Q9Y566
# T11 sequence (Q9Y566 658-767, limits assumed, looked up): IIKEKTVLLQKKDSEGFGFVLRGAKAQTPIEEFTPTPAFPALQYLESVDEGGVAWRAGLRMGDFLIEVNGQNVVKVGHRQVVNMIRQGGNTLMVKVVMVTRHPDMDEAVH
# T12: SNTA1, Q13424
# T12 sequence (Q13424 82-180, limits assumed, looked up): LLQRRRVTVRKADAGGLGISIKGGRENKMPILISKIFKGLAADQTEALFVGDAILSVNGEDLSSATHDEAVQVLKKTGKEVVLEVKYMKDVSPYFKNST
# T13: SNTG1, Q9NSN8
# T13 sequence (Q9NSN8 52-150, limits assumed, looked up): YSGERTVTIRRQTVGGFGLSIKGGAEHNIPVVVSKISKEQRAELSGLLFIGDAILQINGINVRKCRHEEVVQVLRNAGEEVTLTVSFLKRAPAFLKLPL
# How the values were obtained:
# Experiment in all cases: holdup assay
# Parameters in all cases: key: below the threshold = too weak to quantify, mostly under pKd 3.1 to 4
# Conditions in all cases: plain residues with an end cap or a label only (N-terminal biotin on a linker: ado-ado)
# [1] = molecular target: T1, APBA3_1, O96018
# [2] = molecular target: CASK, O14936
# CASK, O14936, sequence (O14936 487-570): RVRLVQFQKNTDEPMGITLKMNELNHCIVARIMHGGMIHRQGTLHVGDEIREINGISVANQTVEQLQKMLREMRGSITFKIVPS
# [3] = molecular target: DLG4_2, P78352
# DLG4_2, P78352, sequence (P78352 155-259): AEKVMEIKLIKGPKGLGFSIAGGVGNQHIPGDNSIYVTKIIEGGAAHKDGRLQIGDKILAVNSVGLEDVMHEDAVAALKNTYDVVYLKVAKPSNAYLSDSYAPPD
# [4] = molecular target: T2, DVL3, Q92997
# [5] = molecular target: FRMPD2_3, Q68DX3
# FRMPD2_3, Q68DX3, sequence (Q68DX3 1073-1166): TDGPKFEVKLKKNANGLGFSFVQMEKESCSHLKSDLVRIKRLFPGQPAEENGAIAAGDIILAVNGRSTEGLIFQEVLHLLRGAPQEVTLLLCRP
# [6] = molecular target: GRID2IP_1, A4D2P6
# GRID2IP_1, A4D2P6, sequence (A4D2P6 1-87): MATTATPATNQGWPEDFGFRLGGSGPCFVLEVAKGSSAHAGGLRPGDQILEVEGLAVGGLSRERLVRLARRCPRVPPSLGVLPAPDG
# [7] = molecular target: T3, GRIP1_3, Q9Y3R0
# [8] = molecular target: IL16_1, Q14005
# IL16_1, Q14005, sequence (Q14005 210-306): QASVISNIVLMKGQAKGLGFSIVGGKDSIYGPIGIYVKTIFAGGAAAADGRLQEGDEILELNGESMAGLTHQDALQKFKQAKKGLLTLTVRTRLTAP
# [9] = molecular target: Inadl_3, Q8NI35
# Inadl_3, Q8NI35, sequence (Q8NI35 359-469): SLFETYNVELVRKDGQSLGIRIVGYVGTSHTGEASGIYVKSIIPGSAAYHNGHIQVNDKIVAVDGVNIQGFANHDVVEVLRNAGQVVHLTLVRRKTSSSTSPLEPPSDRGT
# [10] = molecular target: LIMK2, P53671
# LIMK2, P53671, sequence (P53671 143-248): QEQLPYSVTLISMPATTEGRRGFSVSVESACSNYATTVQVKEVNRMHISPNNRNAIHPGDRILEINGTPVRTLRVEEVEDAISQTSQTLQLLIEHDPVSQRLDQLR
# [11] = molecular target: LNX1_1, Q8TBB1
# LNX1_1, Q8TBB1, sequence (Q8TBB1 261-371): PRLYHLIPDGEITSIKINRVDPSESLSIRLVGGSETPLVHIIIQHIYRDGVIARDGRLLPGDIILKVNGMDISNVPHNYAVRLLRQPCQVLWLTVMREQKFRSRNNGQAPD
# [12] = molecular target: T4, LNX2_2, Q8N448
# [13] = molecular target: MAGI1_2, Q96QZ7
# MAGI1_2, Q96QZ7, sequence (Q96QZ7 456-580): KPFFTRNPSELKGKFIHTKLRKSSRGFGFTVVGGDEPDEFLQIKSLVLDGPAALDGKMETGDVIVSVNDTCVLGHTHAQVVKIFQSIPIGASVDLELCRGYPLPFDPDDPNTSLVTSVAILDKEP
# [14] = molecular target: MAGI2_4, Q86UL8
# MAGI2_4, Q86UL8, sequence (Q86UL8 772-865): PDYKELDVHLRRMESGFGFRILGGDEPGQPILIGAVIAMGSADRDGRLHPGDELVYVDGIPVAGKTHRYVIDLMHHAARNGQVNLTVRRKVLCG
# [15] = molecular target: T5, MPDZ_10, O75970
# [16] = molecular target: T6, MPDZ_5, O75970
# [17] = molecular target: T7, PARD3B_1, Q8TEW8
# [18] = molecular target: T8, PCLO, Q9Y6V0
# [19] = molecular target: T9, PDZD7_3, Q9H5P4
# [20] = molecular target: PDZRN4_1, Q6ZMN7
# PDZRN4_1, Q6ZMN7, sequence (Q6ZMN7 213-318): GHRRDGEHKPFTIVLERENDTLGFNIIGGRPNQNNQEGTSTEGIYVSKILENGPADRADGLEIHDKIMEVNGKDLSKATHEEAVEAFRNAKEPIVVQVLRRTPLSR
# [21] = molecular target: T10, RADIL, Q96JH8
# [22] = molecular target: T11, SHANK1, Q9Y566
# [23] = molecular target: T12, SNTA1, Q13424
# [24] = molecular target: T13, SNTG1, Q9NSN8
pKd [1],pKd [2],pKd [3],pKd [4],pKd [5],pKd [6],pKd [7],pKd [8],pKd [9],pKd [10],pKd [11],pKd [12],pKd [14],pKd [16],pKd [17],pKd [18],pKd [20],pKd [21],pKd [23],pKd [24],Binder,further results
below the threshold,below the threshold,below the threshold,below the threshold,below the threshold,below the threshold,below the threshold,below the threshold,below the threshold,below the threshold,below the threshold,below the threshold,below the threshold,below the threshold,below the threshold,below the threshold,below the threshold,below the threshold,below the threshold,below the threshold,"LRYARPADAL [PPP1R3G, B7ZBB8]",pKd [13]: below the threshold; pKd [15]: below the threshold; pKd [19]: below the threshold; pKd [22]: below the threshold
below the threshold,below the threshold,–,below the threshold,below the threshold,below the threshold,below the threshold,below the threshold,below the threshold,below the threshold,–,below the threshold,below the threshold,below the threshold,below the threshold,below the threshold,below the threshold,below the threshold,below the threshold,below the threshold,"EYRKDNKVAA [LSM14A, Q8ND56;Q8ND56-2]",pKd [13]: below the threshold; pKd [19]: below the threshold
below the threshold,below the threshold,3.97,3.58,3.49,below the threshold,below the threshold,below the threshold,below the threshold,below the threshold,3.87,3.56,3.94,below the threshold,3.95,below the threshold,3.89,3.63,4.06,3.51,"SKSLERATQL [COMMD3, Q9UBI1]",pKd [13]: 3.85; pKd [15]: below the threshold; pKd [19]: 4.23; pKd [22]: 4.81
below the threshold,below the threshold,below the threshold,below the threshold,below the threshold,below the threshold,below the threshold,below the threshold,below the threshold,below the threshold,below the threshold,3.48,below the threshold,below the threshold,5.17,below the threshold,below the threshold,3.52,below the threshold,below the threshold,"GDHLDRRVVL [VAC14, Q08AM6]",pKd [13]: 3.51; pKd [15]: 3.51; pKd [19]: 3.69; pKd [22]: below the threshold
below the threshold,below the threshold,below the threshold,below the threshold,below the threshold,below the threshold,below the threshold,below the threshold,below the threshold,below the threshold,below the threshold,below the threshold,below the threshold,below the threshold,below the threshold,below the threshold,below the threshold,below the threshold,below the threshold,below the threshold,"KSTTRSSSSC [NDE1, Q9NXR1;Q9NXR1-2]",pKd [15]: below the threshold; pKd [22]: below the threshold
below the threshold,below the threshold,4.91,below the threshold,3.63,below the threshold,below the threshold,4.12,4.63,below the threshold,4.57,4.71,4.26,below the threshold,below the threshold,below the threshold,4.55,4.73,4.98,5.14,"QELLEYETTV [XKR7, Q5GH72]",pKd [13]: 3.6; pKd [15]: below the threshold; pKd [19]: 4.85; pKd [22]: 4.44
